Results published in the DeepSol protein solubility set.

Assay: soluble on expression in E. coli; label from the status in PepcDB or PDB records

Sequence | soluble on expression in E. coli
MGSSHHHHHHSSGLEVLFQGPHMDFDVKRKYFRQELERLDEGLRKEDMAVHVRRDHVFEDSYRELHRKSPEEMKNRLYIVFEGEEGQDAGGLLREWYMIISREMFNPMYALFRTSPGDRVTYTINPSSHANPNHLSYFKFVGRIVAKAVYDNRLLECYFTRSFYKHILGKSVRYTDMESEDYHFYQGLVYLLENDVSTLGYDLTFSTEVQEFGVAEVRDLKPNGANILVTEENKKEYVHLVCQMRMTGAIRKQLAAFLEGFYEIIPKRLISIFTEQELELLISGLPTIDIDDLKSNTEYHKYQSNSIQIQWFWRALRSFDQADRAKFLQFVTGTSKVPLQGFAALEGMNGIQKFQIHRDDRSTDRLPSAHTCFNQLDLPAYESFEKLRHMLLLAIQEASEGFGLA | soluble
MSYYHHHHHHLESTSLYKKAGFMADQLTPHLEIPTAIKPRDGRFGSGPSKVRLEQLQTLTTTAAALFGTSHRQAPVKNLVGRVRSGLAELFSLPDGYEVILGNGGATAFWDAAAFGLIDKRSLHLTYGEFSAKFASAVSKNPFVGEPIIITSDPGSAPEPQTDPSVDVIAWAHNETSTGVAVAVRRPEGSDDALVVIDATSGAGGLPVDIAETDAYYFAPQKNFASDGGLWLAIMSPAALSRIEAIAATGRWVPDFLSLPIAVENSLKNQTYNTPAIATLALLAEQIDWLVGNGGLDWAVKRTADSSQRLYSWAQERPYTTPFVTDPGLRSQVVGTIDFVDDVDAGTVAKILRANGIVDTEPYRKLGRNQLRVAMFPAVEPDDVSALTECVDWVVERL | soluble
MRYPIMNNFFKIHDNLLRNLSPSLRRGLMDEIDWNDRLIGIKGARGMGKTTFLLDYARENFGIGNRKCLYINLNQLYFTTESLVNFAGEFVKQGGEVLLLDQVFKYPNWSIELRQCMELYPDLRIVFTGSTVMRLKEENPELNGLVTSYVLNGFSFREFLNLKTGLSLQPYSFDEIVSNHEQIAPRILEQVNPLDWFQDYLHHGYYPIFLEDKNYSESLLKTLNMTLEVDVLFIRQIEQRFLHKLRKLLYLLGQRAPGSLNISSIAKEVDTSRTTITNYLKYLSEARLIKELHREEETGAKKPAMIYLDNTNVGYVIQPEPLNYIDVLKTFFLNQVKSRNEVCLGSRSQIAFCVNRQYQFCIDEKMSRRYRPDRYYAIQNMRSGTRNMIPLWLFGFLY | not soluble
MGSDKIHHHHHHMKNFIRKLIRALTAIRLETDRYKHSTLRIIINWLTAFLKDLFSAQEIRLYGLADPEDGANRIRQYVSKEMADRFYRKYNPGAAVPNIEDKFIFTTLCLQHHLPIPATYGIFKQGIVKTFDERIFQESSRFRDFIRELEPGEYLLKPNNGMLGLGLSILEIDDQGSLKFQGKSITADDLYRELCSIEVTLPASSKGDSVDMDFEGLLFQQRIANHPEITKLTGFKMLQTIRICTHVTDNNQVEILFAFMKLAGQEGLADAFNLGKTGNMLAKIDPATGKFCNVYAMDQQQGYLVETTHHAVTQANLLNFTVPHWQACLTLAMKLSTTFLPLRAVGWDIAITDNRPVVLEGNDNWVPVVPFDINIDKLKQYKLKS | not soluble
KAFTPDEAARFYAAARADRWGWPLAFMLATGLRPGEALGLTWADVTMRGSAEGGTLAAVVHIERTRSVSGGRVYEDTPKTERGRRSLTVTGDAARLLLDARAQAEREAGARLRHNGREYQSTGYVFVTRAGTPYRPDNLRRPMARLCQAVGVPVLTPHKLRHTWASVQAAAGVPVEVLSAELGHAAPSFTRDTYRHVYESERASLTYDPLTPAAAPAPEPEPQGRKRV | not soluble
MGSSHHHHHHSSGLVPRGSHMIRYSEVTPYHVTSVWTKGVTPPANFTQGEDVFHAPYVANQGWYDITKTFNGKDDLLSGAATAGNMLHWWFDQNKDQIKRYLEEHPEKQKINFNGEQMFDVKEAIDTKNHQLDSKLFEYFKEKAFPYLSTKHLGVFPDHVIDMFINGYRLSLTNHGPTPVKEGSKDPRGGIFDAVFTRGDQSKLLTSRHDFKEKNLKEISDLIKKELTEGKALGLSHTYANVRINHVINLWGADFDSNGNLKAIYVTDSDSNASIGMKKYFVGVNSAGKVAISAKEIKEDNIGAQVLGLFTLSTGQDSWNQTN | soluble
MTHNGGRHLLEAVTLCGSILTRYKRSNMKLDEAEVRALKELFEKYQDILVDGSPGLPTHASGPMIQPPVTNMVAPYDSPTDTIVKFVEGTINLQRPIVEVLHVMNEHLSLVLRAKNTHVFYVDPVNNLLYDPIHGVAAALDESSPIGKAIVSGERLNVAGTLYIPIISEGMPLGCVLSPCGRADYHASTMLESSLRVISTSLKNIIQAEKLNWNKEKAEAMLRMATQLARDNLEETVLASSIMNTVKSLTESARCSLFLVRGDVLEAHFEDGNVVTIPRGAGIAGYVAQTGETVNIVDAYADDRFNREVDKATGYRTKTILCMPVMYEGTIVAVAQLINKLDLTTESGLRLPRVFGKRDEELFQTFSMFAGASLRNCRINDRLLKEKKKSDVILDVVTVLSNTDIRDVDGIVRHALHGAKKLLNADRSTLFLVDKERNELCSRMADSVAGKEIRFPCGQGIAGTVAASGVGENIQDAYQDPRFNREVDKQLGYRTQTILCEPIILNGEILAVVQLVNKLDTSGEVTVFTEDDRETFRVFSLFAGISINNSHLLEFAVKAGREVMELNEHRATLFNKNVPSRAVKRVTAITKVEREAVLVCELPSFDVTDVEFDLFRARESTDKPLDVAAAIAYRLLLGSGLPQKFGCSDEVLLNFILQCRKKYRNVPYHNFYHVVDVCQTIYTFLYRGNVYEKLTELECFVLLITALVHDLDHMGLNNSFYLKTESPLGILSSASGNTSVLEVHHCNLAVEILSDPESDVFGGLEGAERTLAFRSMIDCVLATDMAKHGSALEAFLASAADQSSDEAAFHRMTMEIILKAGDISNVTKPFDISRQWAMAVTEEFYRQGDMEKERGVEVLPMFDRSKNMELAKGQIGFIDFVAAPFFQKIVDACLQGMQWTVDRIKSNRAQWERVLETRLSTSSGNNSSTR | soluble
MGSDKIHHHHHHIYCSGKLLQTVMAVQLYPDSKTFVDQPMKENQTGKSIMEHFEKRFPVSIEKITKKDVAEFVDEFFDKEGNELDVCDLPDWRPITEQLANIKDASYQAFAQRLHFIWIQLCRQIKPEVKNDPSRFSLIYVPYQFILPGGRFREFYYWDAYWILKGLIASELYSTARMMILNFAHIIETYGFVPNGGRVYYLRRSQPPFFAPMVYEYYLATQDIQLVADLIPVIEKEYTFWSERRTVNVTYEHPDLNETLHMFQYRTEAETPRPESFREDVLSAEHFTTKDRKKQFFKDLGSAAESGWDFSSRWFKNHKDISTIETTNIVPVDLNAFLCYNMNIMQLFYKLTGNPLKHLEWSSRFTNFREAFTKVFYVPARKGWYDYNLRTLTHNTDFFASNAVPLFSQCYDPLNSQIAVDVYNEMQNSGAFSIPGGIPTSMNEETNQQWDFPNGWSPMNHMIIEGLRKSNNPILQQKAFTLAEKWLETNMQTFNVSDEMWEKYNVKEPLGKLATGGEYEVQAGFGWTNGAALDLIFTYSDRLQYNGPILESLVGSQTTSMKSSPDSSTSLPIDITTTITTSSSSSTFGYSNILTLITVFVLYIL | not soluble
MYNGYADVDDLHVYVYCGNTPELRLQELVADVKITIQPENEKSCCIKKFLSLKDNKFESIAMSADFGDFDEMVYNYAIDGKCTIEADITIIKEVGDARAKLRDFGEETRDVSDVVINVQNEKFHVSKMFLAAQSSHFKLLFKNSNDSEIALDGIIPEDFQNFLELLYGEPALTEDSVEGILQIAARFDVSTVIRKGEDFLLQKSEFSPEKKLQMSLKYNLENLKSKCLSEVKSVADIRSVLPKDIKEMDHSVMAELLEKSLGLQKT | not soluble
MSLNNMRLFKKSLLAVTVTLATQQAFAAGFQLNAQSATGLGRAFAGDAVIADNAAVMSRNPAAMALFDEMALSLGFETITTMIDVKNVSYRGVLGNSVSVQDTDDVGGTSVAPNIHLIVPVNEQFAWGVNAYSNFGTKTEFSDSYPASEYGGLTDVKSFNLGLAGSYRVNKEWSFGAGLDLIYGQGTMKRIAGTSFPASTIVVNPTTVIPARGTSLLNVDKADGWAVGFNLGTVYEMDENNRFGLSYRYSPEFKAKDDYGQEITLPLPDIAEFSGFHKIENTQFAVHYSVQWIGWSAFDKIEFRNLVTSRSSVGALTKGSYDKMYEWQDGWHYSIGGTYYLNSDWTLRAGYMYDTSAQDSRTSISVPDSDRQWLSAGFTYNIDDKSNVDFGFTYLMGKDVAVSENDAGSKLTATTHADAILLGLQYSRTFEGGSHHHHHH | soluble
